Test results reported in PMC4027212.

Target: FANCI (human, UniProt Q9NVI1 1-1328)
Test: EMSA

Chain of FANCI (Q9NVI1 whole entry): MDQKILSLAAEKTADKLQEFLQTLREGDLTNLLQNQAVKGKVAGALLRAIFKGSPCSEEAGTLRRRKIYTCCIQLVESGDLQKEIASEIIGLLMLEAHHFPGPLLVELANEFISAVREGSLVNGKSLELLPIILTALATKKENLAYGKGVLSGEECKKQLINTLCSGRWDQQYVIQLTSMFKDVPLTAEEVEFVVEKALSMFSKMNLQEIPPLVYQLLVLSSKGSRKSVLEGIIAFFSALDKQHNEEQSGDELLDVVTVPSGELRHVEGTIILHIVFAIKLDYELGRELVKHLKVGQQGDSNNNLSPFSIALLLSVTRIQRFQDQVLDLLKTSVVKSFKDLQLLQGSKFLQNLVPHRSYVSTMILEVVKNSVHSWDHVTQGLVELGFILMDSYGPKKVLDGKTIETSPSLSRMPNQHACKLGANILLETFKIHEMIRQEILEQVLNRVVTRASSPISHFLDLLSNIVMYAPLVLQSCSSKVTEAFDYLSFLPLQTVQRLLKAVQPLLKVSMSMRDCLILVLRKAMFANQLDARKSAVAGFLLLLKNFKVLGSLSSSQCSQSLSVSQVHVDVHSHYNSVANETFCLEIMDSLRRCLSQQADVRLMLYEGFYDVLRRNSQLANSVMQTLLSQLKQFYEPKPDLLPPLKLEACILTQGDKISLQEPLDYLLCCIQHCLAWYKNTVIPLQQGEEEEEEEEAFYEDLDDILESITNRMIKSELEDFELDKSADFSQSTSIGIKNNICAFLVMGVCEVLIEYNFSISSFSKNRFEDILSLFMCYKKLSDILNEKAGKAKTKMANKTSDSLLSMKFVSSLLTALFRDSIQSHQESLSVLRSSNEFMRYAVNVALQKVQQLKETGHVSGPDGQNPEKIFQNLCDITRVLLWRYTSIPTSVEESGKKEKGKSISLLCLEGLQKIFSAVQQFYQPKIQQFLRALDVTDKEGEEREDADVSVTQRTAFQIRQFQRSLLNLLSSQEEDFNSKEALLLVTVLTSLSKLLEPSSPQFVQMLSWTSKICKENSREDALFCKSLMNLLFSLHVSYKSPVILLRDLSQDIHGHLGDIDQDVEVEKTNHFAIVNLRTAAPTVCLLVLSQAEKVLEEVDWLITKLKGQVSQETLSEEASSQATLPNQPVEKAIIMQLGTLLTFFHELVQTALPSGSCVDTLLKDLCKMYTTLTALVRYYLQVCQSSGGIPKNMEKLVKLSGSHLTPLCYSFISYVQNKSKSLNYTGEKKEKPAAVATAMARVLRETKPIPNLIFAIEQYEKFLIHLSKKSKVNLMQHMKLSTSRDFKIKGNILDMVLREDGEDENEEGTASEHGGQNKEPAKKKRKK

B1: Splayed arm (O2+O9) (structured_DNA)
DNA 1: AAAAAAAAAAAAAAAAAAAAAAAAAAAAAAAAAAAAAAAAGTAGAGTCGACGGTGCTGGGATCCAACATGTTTTCAATCTG
DNA 2: CAGATTGAAAACATGTTGGATCCCAGCACCGTCGACTCTACAAAAAAAAAAAAAAAAAAAAAAAAAAAAAAAAAAAAAAAA
binding result: binds
